T1: GFP-Sec13, P55735
T1 chain: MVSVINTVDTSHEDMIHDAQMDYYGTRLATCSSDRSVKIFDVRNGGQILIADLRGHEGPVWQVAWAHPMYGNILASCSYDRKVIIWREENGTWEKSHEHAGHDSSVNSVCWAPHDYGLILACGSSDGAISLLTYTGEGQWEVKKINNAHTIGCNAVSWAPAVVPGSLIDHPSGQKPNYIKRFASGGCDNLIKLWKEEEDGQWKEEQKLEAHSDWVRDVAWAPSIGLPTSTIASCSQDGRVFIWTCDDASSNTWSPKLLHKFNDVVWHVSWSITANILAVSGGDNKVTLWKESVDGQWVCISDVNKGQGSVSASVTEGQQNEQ


What was measured:
GFP-Sec13, P55735 = target: T1, GFP-Sec13, P55735; assay: co-immunoprecipitation and western blotting; conditions: chain shown with the change;; parent: 0.8
GFP-tagged Sec23, Q15436 [1] = assay: co-immunoprecipitation (anti-GFP beads) and western blotting, single blot quantified; conditions: chain shown with the change; HEK293 cells co-transfected; parent: 1
GFP-tagged Sec23, Q15436 [2] = assay: co-immunoprecipitation (anti-GFP beads) and western blotting, mean of three experiments; conditions: chain shown with the change; HEK293 cells co-transfected; parent: est. 1.0; read off a plot

Chain of GFP-tagged Sec23, Q15436 (Q15436 whole entry): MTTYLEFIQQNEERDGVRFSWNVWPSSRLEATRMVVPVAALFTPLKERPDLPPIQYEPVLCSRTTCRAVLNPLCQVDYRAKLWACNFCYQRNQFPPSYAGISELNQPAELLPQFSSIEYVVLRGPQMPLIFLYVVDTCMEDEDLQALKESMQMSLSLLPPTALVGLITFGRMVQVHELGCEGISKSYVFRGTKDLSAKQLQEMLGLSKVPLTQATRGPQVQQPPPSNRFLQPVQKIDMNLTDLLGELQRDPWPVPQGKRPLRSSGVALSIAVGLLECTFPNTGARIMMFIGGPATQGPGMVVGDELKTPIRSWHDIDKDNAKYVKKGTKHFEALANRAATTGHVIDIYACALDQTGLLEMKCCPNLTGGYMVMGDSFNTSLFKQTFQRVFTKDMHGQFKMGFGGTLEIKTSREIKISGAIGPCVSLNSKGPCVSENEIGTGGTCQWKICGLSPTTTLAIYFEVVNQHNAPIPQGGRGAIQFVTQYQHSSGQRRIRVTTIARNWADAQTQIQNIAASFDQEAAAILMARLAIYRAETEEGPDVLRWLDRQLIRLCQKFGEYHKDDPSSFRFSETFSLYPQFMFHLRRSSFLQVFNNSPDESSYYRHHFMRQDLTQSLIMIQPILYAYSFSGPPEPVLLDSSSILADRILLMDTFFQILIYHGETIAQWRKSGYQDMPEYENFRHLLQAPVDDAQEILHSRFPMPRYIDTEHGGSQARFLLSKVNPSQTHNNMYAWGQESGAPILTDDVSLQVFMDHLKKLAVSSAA

| Binder | other: normalized ratio of co-IP'ed Sec31 (GFP-Sec13, P55735) | ratio to parent (GFP-tagged Sec23, Q15436 [1]) | ratio to parent (GFP-tagged Sec23, Q15436 [2]) |
| --- | --- | --- | --- |
| FLAG-tagged wild type (WT) Sec31, O94979 S527A; S799A (protein) MKLKEVDRTAMQAWSPAQNHPIYLATGTSAQQLDATFSTNASLEIFELDLSDPSLDMKSCATFSSSHRYHKLIWGPYKMDSKGDVSGVLIAGGENGNIILYDPSKIIAGDKEVVIAQNDKHTGPVRALDVNIFQTNLVASGANESEIYIWDLNNFATPMTPGAKTQPPEDISCIAWNRQVQHILASASPSGRATVWDLRKNEPIIKVSDHSNRMHCSGLAWHPDVATQMVLASEDDRLPVIQMWDLRFASSPLRVLENHARGILAIAWSMADPELLLSCGKDAKILCSNPNTGEVLYELPTNTQWCFDIQWCPRNPAVLSAASFDGRISVYSIMGGSTDGLRQKQVDKLSSSFGNLDPFGTGQPLPPLQIPQQTAQHSIVLPLKKPPKWIRRPVGASFSFGGKLVTFENVRMPSHQGAEQQQQQHHVFISQVVTEKEFLSRSDQLQQAVQSQGFINYCQKKIDASQTEFEKNVWSFLKVNFEDDSRGKYLELLGYRKEDLGKKIALALNKVDGANVALKDSDQVAQADGEESPAAEEQLLGEHIKEEKEESEFLPSSGGTFNISVSGDIDGLITQALLTGNFESAVDLCLHDNRMADAIILAIAGGQELLARTQKKYFAKSQSKITRLITAVVMKNWKEIVESCDLKNWREALAAVLTYAKPDEFSALCDLLGTRLENEGDSLLQTQACLCYICAGNVEKLVACWTKAQDGSHPLSLQDLIEKVVILRKAVQLTQAMDTSTVGVLLAAKMSQYANLLAAQGSIAAALAFLPDNTNQPNIMQLRDRLCRAQGEPVAGHEAPKIPYEKQQLPKGRPGPVAGHHQMPRVQTQQYYPHGENPPPPGFIMHGNVNPNAAGQLPTSPGHMHTQVPPYPQPQPYQPAQPYPFGTGGSAMYRPQQPVAPPTSNAYPNTPYISSASSYTGQSQLYAAQHQASSPTSSPATSFPPPPSSGASFQHGGPGAPPSSSAYALPPGTTGTLPAASELPASQRTGPQNGWNDPPALNRVPKKKKMPENFMPPVPITSPIMNPLGDPQSQMLQQQPSAPVPLSSQSSFPQPHLPGGQPFHGVQQPLGQTGMPPSFSKPNIEGAPGAPIGNTFQHVQSLPTKKITKKPIPDEHLILKTTFEDLIQRCLSSATDPQTKRKLDDASKRLEFLYDKLREQTLSPTITSGLHNIARSIETRNYSEGLTMHTHIVSTSNFSETSAFMPVLKVVLTQANKLGV | 1.2 |  |  |
| FLAG-tagged wild type (WT) Sec31, O94979 S527A; S799A; T1165A (protein) MKLKEVDRTAMQAWSPAQNHPIYLATGTSAQQLDATFSTNASLEIFELDLSDPSLDMKSCATFSSSHRYHKLIWGPYKMDSKGDVSGVLIAGGENGNIILYDPSKIIAGDKEVVIAQNDKHTGPVRALDVNIFQTNLVASGANESEIYIWDLNNFATPMTPGAKTQPPEDISCIAWNRQVQHILASASPSGRATVWDLRKNEPIIKVSDHSNRMHCSGLAWHPDVATQMVLASEDDRLPVIQMWDLRFASSPLRVLENHARGILAIAWSMADPELLLSCGKDAKILCSNPNTGEVLYELPTNTQWCFDIQWCPRNPAVLSAASFDGRISVYSIMGGSTDGLRQKQVDKLSSSFGNLDPFGTGQPLPPLQIPQQTAQHSIVLPLKKPPKWIRRPVGASFSFGGKLVTFENVRMPSHQGAEQQQQQHHVFISQVVTEKEFLSRSDQLQQAVQSQGFINYCQKKIDASQTEFEKNVWSFLKVNFEDDSRGKYLELLGYRKEDLGKKIALALNKVDGANVALKDSDQVAQADGEESPAAEEQLLGEHIKEEKEESEFLPSSGGTFNISVSGDIDGLITQALLTGNFESAVDLCLHDNRMADAIILAIAGGQELLARTQKKYFAKSQSKITRLITAVVMKNWKEIVESCDLKNWREALAAVLTYAKPDEFSALCDLLGTRLENEGDSLLQTQACLCYICAGNVEKLVACWTKAQDGSHPLSLQDLIEKVVILRKAVQLTQAMDTSTVGVLLAAKMSQYANLLAAQGSIAAALAFLPDNTNQPNIMQLRDRLCRAQGEPVAGHEAPKIPYEKQQLPKGRPGPVAGHHQMPRVQTQQYYPHGENPPPPGFIMHGNVNPNAAGQLPTSPGHMHTQVPPYPQPQPYQPAQPYPFGTGGSAMYRPQQPVAPPTSNAYPNTPYISSASSYTGQSQLYAAQHQASSPTSSPATSFPPPPSSGASFQHGGPGAPPSSSAYALPPGTTGTLPAASELPASQRTGPQNGWNDPPALNRVPKKKKMPENFMPPVPITSPIMNPLGDPQSQMLQQQPSAPVPLSSQSSFPQPHLPGGQPFHGVQQPLGQTGMPPSFSKPNIEGAPGAPIGNTFQHVQSLPTKKITKKPIPDEHLILKTTFEDLIQRCLSSATDPQTKRKLDDASKRLEFLYDKLREQTLSPAITSGLHNIARSIETRNYSEGLTMHTHIVSTSNFSETSAFMPVLKVVLTQANKLGV | 1.4 | 2.3 | 2.3 |

Second part, the binder after the results:

| other: normalized ratio of co-IP'ed Sec31 (GFP-Sec13, P55735) | ratio to parent (GFP-tagged Sec23, Q15436 [1]) | ratio to parent (GFP-tagged Sec23, Q15436 [2]) | Binder |
| --- | --- | --- | --- |
| 1 | 1 | 0.9 | FLAG-tagged wild type (WT) Sec31, O94979 S527A (protein) MKLKEVDRTAMQAWSPAQNHPIYLATGTSAQQLDATFSTNASLEIFELDLSDPSLDMKSCATFSSSHRYHKLIWGPYKMDSKGDVSGVLIAGGENGNIILYDPSKIIAGDKEVVIAQNDKHTGPVRALDVNIFQTNLVASGANESEIYIWDLNNFATPMTPGAKTQPPEDISCIAWNRQVQHILASASPSGRATVWDLRKNEPIIKVSDHSNRMHCSGLAWHPDVATQMVLASEDDRLPVIQMWDLRFASSPLRVLENHARGILAIAWSMADPELLLSCGKDAKILCSNPNTGEVLYELPTNTQWCFDIQWCPRNPAVLSAASFDGRISVYSIMGGSTDGLRQKQVDKLSSSFGNLDPFGTGQPLPPLQIPQQTAQHSIVLPLKKPPKWIRRPVGASFSFGGKLVTFENVRMPSHQGAEQQQQQHHVFISQVVTEKEFLSRSDQLQQAVQSQGFINYCQKKIDASQTEFEKNVWSFLKVNFEDDSRGKYLELLGYRKEDLGKKIALALNKVDGANVALKDSDQVAQADGEESPAAEEQLLGEHIKEEKEESEFLPSSGGTFNISVSGDIDGLITQALLTGNFESAVDLCLHDNRMADAIILAIAGGQELLARTQKKYFAKSQSKITRLITAVVMKNWKEIVESCDLKNWREALAAVLTYAKPDEFSALCDLLGTRLENEGDSLLQTQACLCYICAGNVEKLVACWTKAQDGSHPLSLQDLIEKVVILRKAVQLTQAMDTSTVGVLLAAKMSQYANLLAAQGSIAAALAFLPDNTNQPNIMQLRDRLCRAQGEPVAGHESPKIPYEKQQLPKGRPGPVAGHHQMPRVQTQQYYPHGENPPPPGFIMHGNVNPNAAGQLPTSPGHMHTQVPPYPQPQPYQPAQPYPFGTGGSAMYRPQQPVAPPTSNAYPNTPYISSASSYTGQSQLYAAQHQASSPTSSPATSFPPPPSSGASFQHGGPGAPPSSSAYALPPGTTGTLPAASELPASQRTGPQNGWNDPPALNRVPKKKKMPENFMPPVPITSPIMNPLGDPQSQMLQQQPSAPVPLSSQSSFPQPHLPGGQPFHGVQQPLGQTGMPPSFSKPNIEGAPGAPIGNTFQHVQSLPTKKITKKPIPDEHLILKTTFEDLIQRCLSSATDPQTKRKLDDASKRLEFLYDKLREQTLSPTITSGLHNIARSIETRNYSEGLTMHTHIVSTSNFSETSAFMPVLKVVLTQANKLGV |
| 1 | 1.4 | 1.5 | FLAG-tagged wild type (WT) Sec31, O94979 S799A (protein) MKLKEVDRTAMQAWSPAQNHPIYLATGTSAQQLDATFSTNASLEIFELDLSDPSLDMKSCATFSSSHRYHKLIWGPYKMDSKGDVSGVLIAGGENGNIILYDPSKIIAGDKEVVIAQNDKHTGPVRALDVNIFQTNLVASGANESEIYIWDLNNFATPMTPGAKTQPPEDISCIAWNRQVQHILASASPSGRATVWDLRKNEPIIKVSDHSNRMHCSGLAWHPDVATQMVLASEDDRLPVIQMWDLRFASSPLRVLENHARGILAIAWSMADPELLLSCGKDAKILCSNPNTGEVLYELPTNTQWCFDIQWCPRNPAVLSAASFDGRISVYSIMGGSTDGLRQKQVDKLSSSFGNLDPFGTGQPLPPLQIPQQTAQHSIVLPLKKPPKWIRRPVGASFSFGGKLVTFENVRMPSHQGAEQQQQQHHVFISQVVTEKEFLSRSDQLQQAVQSQGFINYCQKKIDASQTEFEKNVWSFLKVNFEDDSRGKYLELLGYRKEDLGKKIALALNKVDGANVALKDSDQVAQSDGEESPAAEEQLLGEHIKEEKEESEFLPSSGGTFNISVSGDIDGLITQALLTGNFESAVDLCLHDNRMADAIILAIAGGQELLARTQKKYFAKSQSKITRLITAVVMKNWKEIVESCDLKNWREALAAVLTYAKPDEFSALCDLLGTRLENEGDSLLQTQACLCYICAGNVEKLVACWTKAQDGSHPLSLQDLIEKVVILRKAVQLTQAMDTSTVGVLLAAKMSQYANLLAAQGSIAAALAFLPDNTNQPNIMQLRDRLCRAQGEPVAGHEAPKIPYEKQQLPKGRPGPVAGHHQMPRVQTQQYYPHGENPPPPGFIMHGNVNPNAAGQLPTSPGHMHTQVPPYPQPQPYQPAQPYPFGTGGSAMYRPQQPVAPPTSNAYPNTPYISSASSYTGQSQLYAAQHQASSPTSSPATSFPPPPSSGASFQHGGPGAPPSSSAYALPPGTTGTLPAASELPASQRTGPQNGWNDPPALNRVPKKKKMPENFMPPVPITSPIMNPLGDPQSQMLQQQPSAPVPLSSQSSFPQPHLPGGQPFHGVQQPLGQTGMPPSFSKPNIEGAPGAPIGNTFQHVQSLPTKKITKKPIPDEHLILKTTFEDLIQRCLSSATDPQTKRKLDDASKRLEFLYDKLREQTLSPTITSGLHNIARSIETRNYSEGLTMHTHIVSTSNFSETSAFMPVLKVVLTQANKLGV |
